Experimental data from IntAct's records for PubMed 23010927.

B1: Multidrug efflux pump accessory protein AcrZ (Escherichia coli (strain K12)), P0AAW9 (parent)
chain: MLELLKSLVFAVIMVPVVMAIILGLIYGLGEVFNIFSGVGKKDQPGQNH
partner: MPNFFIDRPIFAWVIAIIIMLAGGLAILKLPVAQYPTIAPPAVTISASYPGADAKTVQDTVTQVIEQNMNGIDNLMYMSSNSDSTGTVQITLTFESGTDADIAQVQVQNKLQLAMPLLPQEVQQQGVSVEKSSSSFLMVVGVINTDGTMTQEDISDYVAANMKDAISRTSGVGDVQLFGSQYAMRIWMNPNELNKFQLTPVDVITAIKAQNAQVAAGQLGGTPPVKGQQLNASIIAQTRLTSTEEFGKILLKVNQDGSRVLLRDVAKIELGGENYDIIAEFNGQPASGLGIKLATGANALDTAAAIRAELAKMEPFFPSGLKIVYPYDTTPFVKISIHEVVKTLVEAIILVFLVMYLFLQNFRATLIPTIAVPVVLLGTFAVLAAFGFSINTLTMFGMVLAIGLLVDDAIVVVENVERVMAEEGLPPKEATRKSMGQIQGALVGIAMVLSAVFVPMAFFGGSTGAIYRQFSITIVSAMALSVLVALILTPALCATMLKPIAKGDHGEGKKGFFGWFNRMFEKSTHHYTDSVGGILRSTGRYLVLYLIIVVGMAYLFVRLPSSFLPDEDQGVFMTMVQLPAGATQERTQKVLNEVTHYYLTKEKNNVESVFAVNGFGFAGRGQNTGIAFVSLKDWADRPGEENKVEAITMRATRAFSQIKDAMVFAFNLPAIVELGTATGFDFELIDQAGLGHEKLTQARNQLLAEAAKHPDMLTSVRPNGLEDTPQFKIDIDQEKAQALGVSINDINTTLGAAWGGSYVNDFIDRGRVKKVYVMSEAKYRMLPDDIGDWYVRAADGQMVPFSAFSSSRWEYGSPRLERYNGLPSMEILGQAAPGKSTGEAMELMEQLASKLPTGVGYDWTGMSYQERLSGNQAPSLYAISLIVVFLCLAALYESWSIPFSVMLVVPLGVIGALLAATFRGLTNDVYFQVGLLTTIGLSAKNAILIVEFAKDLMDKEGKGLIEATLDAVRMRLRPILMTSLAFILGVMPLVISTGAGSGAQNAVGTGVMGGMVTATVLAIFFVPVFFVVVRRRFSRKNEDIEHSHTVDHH

Variants of: B1
Conditions: with acrb_ecoli acrB

effect of a mutation on the interaction	Variant
disrupting interaction	MLELLKSLVFAVIMVPVVMAIILGLIYGLREVFNIFSGVGKKDQPGQNH [G30R]
